Legend:
[1] = tested on: washed platelets; test: Ristocetin-induced agglutination of washed platelets (scFv); type: cell-based, human; details: for % agglutination: 100% = ristocetin treatment; for % inhibition: ristocetin-induced agglutination
Procedure: Aggregation is determined in PRP due to the presence of thrombotic agents, while agglutination is determined in washed platelets. The effect of Y1 (scFv) on agglutination of washed platelets was tested at various concentrations of Y1. Platelets were pre-incubated with Y1 scFv, Y17 scFv, Y16-scFv, or a control TM-1 scFv for 4 min at 37° C. before being exposed to ristocetin, an inducer of platelet agglutination and aggregation.
Platelet concentrate in acid-citrate-dextrose (ACD) was obtained from a blood bank, platelets were isolated, washed once in buffer containing ACD and saline in a ratio of 1:7. The platelets were centrifuged at 800 g for 10 min after each wash and were resuspended in Tyrodes solution (2 mM MgCl2, 137 mM NaCl, 2.68 mM KCl, 3 mM NaH2PO4, 0.1% glucose, 5 mM Hepes and 0.35% albumin, pH 7.35) and count the number of cells.
For platelet aggregation studies, platelet rich plasma (PRP) and washed platelets were stirred at 500 rpm at 37° C. in whole blood Lumiaggregometer (Chronolog, Havertown, Pa.). The difference in light transmission through the platelet suspension and suspending medium was taken as 100% aggregation. The effect of Y1 on platelet aggregation was evaluated by addition of different concentration of Y1 before the addition of agonist, and the effect was recorded for four minutes.
The effect of Y17-scFv on vWF-dependent agglutination of platelets was tested at different concentrations of Y17.

[2] = biological target: T1, Glycocalicin (GC) (Homo sapiens, UniProt P07359); test: Western blot with Y1 on SDS-PAGE reducing gels, glycocalicin after enzyme treatment; type: binding; details: O-Sialo glycoprotein endopeptidase, 30′ at 37° C.
T1 construct: glycocalicin (soluble, extracellular fragment of GPIbα); from tissue; host or cells: human platelets
Excerpt: (§1) Y1 ligand was further characterized using enzymatic treatments with proteases, glycanases, and […]; Western blotting with Y1, anti-CD42 antibodies, anti-CD162 antibodies and 181, immunoprecipitation using Y1 and anti-CD162 antibodies; FACS analysis using Y1 anti-CD162 antibodies; and sequencing.
(§2) The table below summarizes the biochemical experiments preformed to characterize and localize the Y1 binding site on KG-1 cells.
(§3) The nitrocellulose membrane was blocked using 5% skim milk for one hour at room temperature. The membrane was then washed 3 times for 5 minutes each with 0.05% Tween 20 in PBS at room temperature. The membrane was incubated with 5 μg/ml Y1-biotin (or 181-biotin) in 2% skim milk in PBS for one hour at room temperature. The membrane was then washed 3 times for 5 minutes each with cold 0.05% Tween 20 in PBS in the cold room (about 4 to about 10° C.). The membrane was then incubated in the cold room with a 1:1000 dilution of SAV-HRP (streptavidin-HRP) (at a final concentration of […]) in 2% skim milk, 0.05% Tween. The dilution was carried out at room temperature (about 25° C.), then the diluted SAV-HRP was cooled on ice for 10-15 minutes before use. The incubation was carried out for 1 hour with gentle shaking. After the incubation with SAV-HRP, the membrane was washed, as above. […]

[3] = tested on: Heparin - BSA; test: Western blot with Y1 on SDS-PAGE reducing gels, heparin-BSA after aryl-sulfatase; type: binding; details: 18 hr at 22° C.
Excerpt: as §1, §2, §3

[4] = biological target: T2, natural human platelet derived glycocalicin (Homo sapiens, UniProt P07359); test: Western blot on natural platelet glycocalicin; type: binding; details: semi-purified human platelet derived glycocalicin
T2 construct: glycocalicin (soluble, extracellular fragment of GPIbα); from tissue; host or cells: human platelets
Procedure: (§4) The DNA fragment encoding for glycocalicin (GC, amino acid 1 to amino acid 493 of GPIbα) was cloned into an IPTG inducible prokaryotic vector cassette. E. coli (BL21 DE3) cells harboring the newly constructed plasmid were grown at 37° C. to O.D. 0.7-0.8, than at 37° C. for 3 hours for in the presence of IPTG for induction.
(§5) SDS-polyacrylamide gel loaded either with semi-purified human platelet derived glycocalicin (“GC”) or with E. coli cell lysates (“total”) derived from induced and non-induced cells were analyzed. Western blot analysis was performed with biotinylated Y1-scFv, polyclonal rabbit anti-human glycocalicin antibody, commercially available mouse anti-human CD42 monoclonal antibody (SZ2 Immunotech, PM640 Serotec, HIP1 Pharmigen, AN51 DAKO), and polyclonal antibody against the N-terminus of GPIbα (Sc-7071, Santa Cruz).

[5] = biological target: T3, recombinant bacterial derived glycocalicin (Homo sapiens, UniProt P07359); test: Western blot on E. coli recombinant glycocalicin; type: binding; details: E. coli cell lysates, IPTG induced
T3 construct: glycocalicin (GC, amino acid 1 to amino acid 493 of GPIbα); made in house; host or cells: E. coli BL21 DE3, total cell lysate
Procedure: as §4, §5

B1: Y1 scFv: fully human scFv clone binding platelets and AML cells; SEQ ID NO:25, heavy chain CDR3 SEQ ID NO:8 (protein, listed as Homo sapiens)
scFv: MKYLLPTAAAGLLLLAAQPAMAEVQLVESGGGVVRPGGSLRLSCAASGFTFDDYGMSWVRQAPGKGLEWVSGINWNGGSTGYADSVKGRFTISRDNAKNSLYLQMNSLRAEDTAVYYCARMRAPVIWGQGTLVTVSRGGGGSGGGGSGGGGSSELTQDPAVSVALGQTVRITCQGDSLRSYYASWYQQKPGQAPVLVIYGKNNRPSGIPDRFSGSSSGNTASLTITGAQAEDEADYYCNSRDSSGNHVVFGGGTKLTVLGAAAEQKLISEEDLNGAA
- % agglutination ([1]; scFv 4 μg/ml): 92%
- % inhibition ([1]; scFv 4 μg/ml): 8%
- % inhibition ([1]; scFv 4 μg/ml, listed as Y1): No inhibition
- % agglutination ([1]; scFv 12.5 μg/ml): 67%
- % inhibition ([1]; scFv 12.5 μg/ml): 33%
- % inhibition ([1]; scFv 12.5 μg/ml, listed as Y1): only partial inhibition
- % agglutination ([1]; scFv 25 μg/ml): 23%
- Reactivity with Y1 [2]: Enhanced
- Reactivity with Y1 [3]: Binds to
- recognition in Western blot [4]: recognized
- recognition in Western blot [5]: did not recognize

— US20040001839A1, “Multimers - isolated molecules comprising epitopes containing sulfated moieties, antibodies to such epitopes, and uses thereof” (priority 2000, published 2004)
